The values that follow are results of earlier work, collected in publication PMC12593480.

The data set addresses IL6 (Homo sapiens) (UniProt P05231).
Sequence of UniProt P05231 (P05231 30-212): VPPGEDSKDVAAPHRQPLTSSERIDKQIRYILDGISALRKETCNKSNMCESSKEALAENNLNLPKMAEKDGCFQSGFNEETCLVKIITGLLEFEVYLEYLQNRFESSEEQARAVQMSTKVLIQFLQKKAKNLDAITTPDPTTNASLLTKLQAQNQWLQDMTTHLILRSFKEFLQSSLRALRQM

For the substance “IL6 receptor alpha (from UniProt P08887)”, the Kd (as a rule, the equilibrium constant for the complex coming apart) is 9 nM.
